Measured values taken from patent publication US10568344B2, “Methods of improving animal performance” (Novozymes A/S, priority 2015, dated 2020).
Read-outs that look alike come from different tables or passages of the source. Marks after values point to notes of the source that are not given here.

How the values were obtained:
[1] = system: Exiguobacterium undae (DSM14481); test: Lysozyme activity turbidity assay (optical density drop); type: biochemical; details: pH 6
[2] = system: Clostridium perfringens DSM756; type: cell-based; details: for Diameter of clearing zone: lysozymes 100 μg/ml, bacitracin 50 μg/ml
[3] = In vivo broiler trial 3, growth performance; parameters: species or system male broiler chickens; Motality: unit not given here
Description: The in vivo trial was carried out as described in example 7, except the feed was supplemented with the GH25 lysozyme (SEQ ID NO: 1) at 12.5 or 25 mg per kg feed, the GH24 lysozyme (SEQ ID NO: 4) at 12.5 or 25 mg per kg feed or with Avilamycin at an inclusion level of 10 mg/kg. No additional enzymes (e.g. phytase) were added to the feed. The experimental diets (Starter, Grower and Finisher) were based on soybean meal, wheat and rye (12%) as main ingredients (Table 8). The diets were formulated to contain 225 g crude protein and 12.5 MJ/kg MEN for the starter period, 215 g crude protein and 12.8 MJ/kg MEN for the grower period and 205 g crude protein and 13.0 MJ/kg MEN for the finisher period.

[4] = In vivo piglet trial, growth performance; parameters: species or system weaned piglets
Description: The trial was performed from Oct. 23 to Dec. 4, 2014 at the Research Center for Animal Nutrition (DSM Nutritional Products France, F-68305 Village-Neuf) according to the official French guidelines for experiments with live animals. One hundred and four castrated male crossbred (Large-White (female)×Redon (male)) weaned piglets having 28 days of age supplied by the commercial farm “[…] du Rhin” located in Balgau (France), were used in a 42-day experiment. The initial bodyweight of the piglets was 7.88±0.675 kg. They were sorted by body weight into 32 groups of 3 or 4 piglets and randomly allotted to each dietary treatment. Each group of animals was placed in one flat-deck cages and allocated to one of the different treatments. Each treatment was replicated with 8 cages using a total of 26 animals (6 cages of 3 animals/treatment and 2 cages of 4 animals/treatment) per treatment. […] Animals were housed in an environmentally controlled room. Room temperature was initially 27° C. and was lowered weekly by about 2° C. until 21-22° C. and relative humidity percentage was 50%. The experimental diets (Pre-Starter and Starter) were fed ad libitum in two feeding phases from day 0 to 14 (phase 1, Pre-starter) and day 14 to 42 (phase 2, Starter). The ingredient composition and the calculated nutrient levels of the experimental diets for phases 1 and 2 are presented in table 11. Both diets were formulated to meet the animals' requirements according NRC (2012) and were fed in pelleted form. Pelleting conditions were at 70° C. for 30 seconds. […] No additional enzymes (e.g. phytase) were added to the feed. […] Appropriate amount of the liquid preparations of lysozyme was diluted in water and sprayed onto the respective pelleted feed to get the final concentrations in the feed corresponding to the different treatments. For procedural balance of all treatments the same volume of water were also sprayed onto the pellets of the control diets. Body weight of the individual animals and feed consumption per pen were recorded on days 14 and 42 of the study. […] The experimental unit was the piglet, except for ADFI and FCR which were measured by cage, and in both cases, treatment was used as class variable. One-factorial ANOVA and Student-Newman-Keuls test was used to assess differences among means in treatment groups.

[5] = system: Micrococcus lysodeikticus ATTC No. 4698; test: Lysozyme activity turbidity assay (optical density drop); details: pH 6
[6] = Finisher (d 36-42), 12.5 mg/kg feed
[7] = Finisher (d 36-42), 25 mg/kg feed
[8] = Grower (d 22-36), 12.5 mg/kg feed
[9] = Grower (d 22-36), 25 mg/kg feed
[10] = Starter (d 1-22), 12.5 mg/kg feed
[11] = Starter (d 1-22), 25 mg/kg feed
[12] = Whole period (d 1-42), 12.5 mg/kg feed
[13] = Whole period (d 1-42), 25 mg/kg feed

B1: SEQ ID NO: 4: mature amino acid sequence of a wild type GH24 lysozyme from Trichophaea saccata (protein, listed as Trichophaea saccata)
chain: YPVKTDLHCRSSPSTSASIVRTYSSGTEVQIQCQTTGTSVQGSNVWDKTQHGCYVADYYVKTGHSGIFTTKCGSSSGGGSCKPPPINAATVALIKEFEGFVPKPAPDPIGLPTVGYGHLCKTKGCKEVPYSFPLTQETATKLLQSDIKTFTSCVSNYVKDSVKLNDNQYGALASWAFNVGCGNVQTSSLIKRLNAGENPNTVAAQELPKWKYAGGKVMPGLVRRRNAEVALFKKPSSVQAHPPKC
modifications: mat_peptide (1)..(245)
- Lysozyme activity as measured by Optical Density Drop [1]: ++ (pH 6)
- Diameter of clearing zone ([2]; Experiment 1, 1/2 MHB pH 6): 11 mm
- Diameter of clearing zone ([2]; Experiment 1, 1/10 MHB pH 7): 9 mm
- Diameter of clearing zone ([2]; Experiment 2, 1/2 MHB pH 6): 10 mm
- Diameter of clearing zone ([2]; Experiment 2, 1/10 MHB pH 7): 8 mm
- Zones around the wells challenged with the enzyme ([2]; both conditions tested (1/10 MHB pH 7 and ½ MHB pH 6)): 8-11 mm
- Benefit over the NC diet ([3]; 12.5 mg/kg): did not show any benefit
- FCR [3, 6]: 1.969
- FCR, Relative to C (%) [3, 6]: 100.4%
- Feed intake [3, 6]: 1560 g/b
- Feed intake, Relative to C (%) [3, 6]: 104.8%
- Weight gain [3, 6]: 795 g/b
- Weight gain, Relative to C (%) [3, 6]: 104.4%
- FCR [3, 7]: 1.919
- FCR, Relative to C (%) [3, 7]: 97.9%
- Feed intake [3, 7]: 1524 g/b
- Feed intake, Relative to C (%) [3, 7]: 102.5%
- Weight gain [3, 7]: 800 g/b
- Weight gain, Relative to C (%) [3, 7]: 105.1%
- FCR [3, 8]: 1.692
- FCR, Relative to C (%) [3, 8]: 98.2%
- Feed intake [3, 8]: 2298 g/b
- Feed intake, Relative to C (%) [3, 8]: 100.5%
- Weight gain [3, 8]: 1359 g/b
- Weight gain, Relative to C (%) [3, 8]: 102.4%
- FCR [3, 9]: 1.714
- FCR, Relative to C (%) [3, 9]: 99.5%
- Feed intake [3, 9]: 2336 g/b
- Feed intake, Relative to C (%) [3, 9]: 102.2%
- Weight gain [3, 9]: 1364 g/b
- Weight gain, Relative to C (%) [3, 9]: 102.7%
- FCR [3, 10]: 1.469
- FCR, Relative to C (%) [3, 10]: 102.0%
- Feed intake [3, 10]: 1608 g/b
- Feed intake, Relative to C (%) [3, 10]: 101.9%
- Weight gain [3, 10]: 1095 g/b
- Weight gain, Relative to C (%) [3, 10]: 99.9%
- FCR [3, 11]: 1.414
- FCR, Relative to C (%) [3, 11]: 98.1%
- Feed intake [3, 11]: 1603 g/b
- Feed intake, Relative to C (%) [3, 11]: 101.6%
- Weight gain [3, 11]: 1133 g/b
- Weight gain, Relative to C (%) [3, 11]: 103.4%
- EPEF [3, 12]: 408
- EPEF, Relative to C (%) [3, 12]: 97.6%
- FCR [3, 12]: 1.683
- FCR, Relative to C (%) [3, 12]: 100.2%
- Feed intake [3, 12]: 5466 g/b
- Feed intake, Relative to C (%) [3, 12]: 102.1%
- Motality [3, 12]: 11.3
- Weight gain [3, 12]: 3249 g/b
- Weight gain, Relative to C (%) [3, 12]: 102.0%
- EPEF [3, 13]: 425
- EPEF, Relative to C (%) [3, 13]: 101.7%
- FCR [3, 13]: 1.657
- FCR, Relative to C (%) [3, 13]: 98.6%
- Feed intake [3, 13]: 5450 g/b
- Feed intake, Relative to C (%) [3, 13]: 101.9%
- Motality [3, 13]: 10.0
- Weight gain [3, 13]: 3290 g/b
- Weight gain, Relative to C (%) [3, 13]: 103.3%
- EPEF improvement compared to NC diet ([3]; whole period, 25 mg/kg): 2.4%
- FCR improvement compared to NC diet ([3]; whole period, 25 mg/kg): 1.2%
- ADFI, % relative NC ([4]; day 0-14, 50 ppm): 92.5%
- ADFI, Mean ([4]; day 0-14, 50 ppm): 333 g/day
- ADWG, % relative NC ([4]; day 0-14, 50 ppm): 91.4%
- ADWG, Mean ([4]; day 0-14, 50 ppm): 265 g/day
- FCR, % relative NC ([4]; day 0-14, 50 ppm): 102.6%
- FCR, Mean ([4]; day 0-14, 50 ppm): 1.272^b
- ADFI, % relative NC ([4]; day 0-42, 50 ppm): 100.8%
- ADFI, Mean ([4]; day 0-42, 50 ppm): 740^b g/d
- ADWG, % relative NC ([4]; day 0-42, 50 ppm): 107.8%
- ADWG, Mean ([4]; day 0-42, 50 ppm): 538 g/day
- EPEF, % relative NC ([4]; day 0-42, 50 ppm): 115.3%
- EPEF, Mean ([4]; day 0-42, 50 ppm): 391
- FCR, % relative NC ([4]; day 0-42, 50 ppm): 92.9%
- FCR, Mean ([4]; day 0-42, 50 ppm): 1.379^a
- ADFI, % relative NC ([4]; day 14-42, 50 ppm): 101.5%
- ADFI, Mean ([4]; day 14-42, 50 ppm): 944^c g/d
- ADWG, % relative NC ([4]; day 14-42, 50 ppm): 111.8%
- ADWG, Mean ([4]; day 14-42, 50 ppm): 674 g/day
- FCR, % relative NC ([4]; day 14-42, 50 ppm): 90.9%
- FCR, Mean ([4]; day 14-42, 50 ppm): 1.404^a
- Improvement on FCR compared to the negative control ([4]; overall period (day 0 to day 42), 50 mg/kg): 7.1%
- Improvement to FCR compared to NC ([4]; starter period, day 15 to day 42, 50 mg/kg): 9.1%
- Improvement of ADWG compared to the negative control diet ([4]; starter period, 50 mg/kg): 11.8%
- EPEF improvement compared to the negative control ([4]; whole period, 50 mg/kg): 15.3%
- Improvement of ADWG compared to the negative control diet ([4]; whole period, 50 mg/kg): 7.8%
- Lysozyme activity as measured by Optical Density Drop [5]: ++ (pH 6)
